Results as given in paper PMC4275271, “Development and Characterization of a Novel Fusion Protein of a Mutated Granulocyte Colony-Stimulating Factor and Human Serum Albumin in Pichia pastoris” (PLoS ONE, 2014).

T1: recombinant human G-CSF receptor (rhG-CSFR), biotinylated (human, UniProt Q99062 25-627, biotin (biotinylated, site not stated))
T1 construct: human granulocyte colony-stimulating factor receptor
T1 sequence (looked up): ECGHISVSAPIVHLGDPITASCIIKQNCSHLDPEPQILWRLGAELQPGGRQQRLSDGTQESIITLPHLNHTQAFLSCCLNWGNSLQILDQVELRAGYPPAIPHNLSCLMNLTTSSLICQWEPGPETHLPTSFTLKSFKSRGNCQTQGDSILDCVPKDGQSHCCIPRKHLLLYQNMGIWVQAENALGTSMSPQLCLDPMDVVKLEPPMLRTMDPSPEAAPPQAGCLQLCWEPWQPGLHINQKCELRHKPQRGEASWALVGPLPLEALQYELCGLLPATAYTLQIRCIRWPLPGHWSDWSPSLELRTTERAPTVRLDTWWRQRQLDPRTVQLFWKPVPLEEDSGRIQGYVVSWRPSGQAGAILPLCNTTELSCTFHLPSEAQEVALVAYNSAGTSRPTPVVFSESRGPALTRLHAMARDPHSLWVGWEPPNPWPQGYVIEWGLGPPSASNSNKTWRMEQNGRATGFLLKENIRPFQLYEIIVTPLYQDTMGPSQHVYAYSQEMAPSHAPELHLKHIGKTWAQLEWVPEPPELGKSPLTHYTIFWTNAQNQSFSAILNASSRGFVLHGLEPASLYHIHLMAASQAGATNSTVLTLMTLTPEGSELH


Biological target: T1, recombinant human G-CSF receptor …
Test: BLI; biotinylated rhG-CSFR (15 µg/ml) on Streptavidin High Binding biosensors, Octet-QK; HMG, rhG-CSF standard or mG-CSF in solution; global fitting
Details: both partners purified

Kd	koff	kon	Binder
1.2 nM	1.94e-05 s⁻¹	16200 M⁻¹ s⁻¹	Human G-CSF mutant (mG-CSF) (ligand, UniProt P09919-2 31-204, looked up, human granulocyte colony-stimulating factor with five substitutions; also called mutated G-CSF) APTYRASSLPQSFLLKSLEQVRKIQGDGAALQEKLCATYKLCHPEELVLLGHSLGIPWAPLSSCPSQALQLAGCLSQLHSGLFLYQGLLQALEGISPELGPTLDTLQLDVADFATTIWQQMEELGMAPALQPTQGAMPAFASAFQRRAGGVLVASHLQSFLEVSYRVLRHLAQP
1.97 nM	2.24e-05 s⁻¹	11400 M⁻¹ s⁻¹	recombinant human G-CSF (rhG-CSF) standard (ligand, UniProt P09919-2 31-204, looked up, human granulocyte colony-stimulating factor, rhG-CSF standard of Amgen; Amgen's rhG-CSF is recalled to be the 174-residue mature form with an added N-terminal Met (filgrastim); also called recombinant hG-CSF standard; source: bought: Amgen, USA) TPLGPASSLPQSFLLKCLEQVRKIQGDGAALQEKLCATYKLCHPEELVLLGHSLGIPWAPLSSCPSQALQLAGCLSQLHSGLFLYQGLLQALEGISPELGPTLDTLQLDVADFATTIWQQMEELGMAPALQPTQGAMPAFASAFQRRAGGVLVASHLQSFLEVSYRVLRHLAQP
